Changes are numbered by the printed parent chain.
T1: mouse EGFR-His (mouse)
T1 chain: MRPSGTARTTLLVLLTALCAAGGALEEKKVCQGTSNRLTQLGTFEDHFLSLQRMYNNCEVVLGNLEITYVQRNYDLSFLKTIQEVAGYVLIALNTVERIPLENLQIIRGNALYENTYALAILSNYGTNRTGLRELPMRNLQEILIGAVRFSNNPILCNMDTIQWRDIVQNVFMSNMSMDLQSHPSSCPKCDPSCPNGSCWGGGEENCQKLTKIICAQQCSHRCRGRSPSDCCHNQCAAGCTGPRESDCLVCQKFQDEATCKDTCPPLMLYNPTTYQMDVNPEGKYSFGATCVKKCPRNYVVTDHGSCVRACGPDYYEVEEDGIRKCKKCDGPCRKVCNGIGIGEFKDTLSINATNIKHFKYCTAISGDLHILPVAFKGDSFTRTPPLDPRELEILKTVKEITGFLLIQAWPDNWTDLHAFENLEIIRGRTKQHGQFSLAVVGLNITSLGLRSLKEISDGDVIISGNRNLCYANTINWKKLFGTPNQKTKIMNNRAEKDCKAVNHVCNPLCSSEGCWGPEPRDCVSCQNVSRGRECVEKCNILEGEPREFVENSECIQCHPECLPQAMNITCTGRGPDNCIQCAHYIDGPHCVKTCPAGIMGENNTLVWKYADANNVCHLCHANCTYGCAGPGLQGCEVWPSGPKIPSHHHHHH

B1: eIg 1+1 H10x4D5 EGFR arm (antibody)
chain 1: not shown
chain 2: QSVLTQPPSVSGAPGQRVTISCSGGSSNVGRNGVNWFQHLPEKAPKLLIYYDAFLSSGVSDRFSGSKSGTSASLAIRGLQSDDEADYYCAAWDDSLYSWVFGGGTNLTVLGQPKAAPSVTLFPPSSEELQANKATLVCLISDFYPGAVTVAWKADSSPVKAGVETTTPSKQSNNKYAASSYLSLTPEQWKSHRSYSCQVTHEGSTVEKTVAPTECS
B2: eIg 1+1 H10x5D5 EGFR arm (antibody)
chain 1: not shown
chain 2: B1 chain 2
B3: Fab/scFv-Fc H10x3-43 EGFR arm (antibody)
chain 1: not shown
chain 2: B1 chain 2
B4: eIg 1+1 H10x3-43 EGFR arm (antibody)
chain 1: not shown
chain 2: B1 chain 2
B5: Db3-43x3-43/FabH10-Fckih EGFR arm (antibody)
chain 1: not shown
chain 2: B1 chain 2
B6: Db3-43xH10-Ig EGFR arm (antibody)
chain 1: QVQLVQSGGGVVQPGGSLRLSCAASGFTFSSYGMHWVRQAPGKGLEWVAFIRYDGSNKYYADSVKGRFTISRDNSKNTLYLQMNSLRAEDTAVYYCAKDGNSGYDSMDYWGQGTLVTVSS
chain 2: QSVLTQPPSVSGAPGQRVTISCSGGSSNVGRNGVNWFQHLPEKAPKLLIYYDAFLSSGVSDRFSGSKSGTSASLAIRGLQSDDEADYYCAAWDDSLYSWVFGGGTNLTVL
B7: Fab-eIg 2+2 H10x3-43 EGFR arm (antibody)
chain 1: B6 chain 1
chain 2: B6 chain 2
B8: eIg YU250-H10xhuU3 EGFR arm (antibody)
chain 1: not shown
chain 2: B1 chain 2
B9: scDb YU250-H10xhuU3 EGFR arm (antibody)
chain 1: B6 chain 1
chain 2: B6 chain 2
B10: scDb-scFv YU250-H10xhuU3 EGFR arm (antibody)
chain 1: B6 chain 1
chain 2: B6 chain 2
B11: eIg 1+1 H10x5D5 MET arm (antibody, V domains shown)
VH: EVQLVESGGGLVQPGGSLRLSCAASGYTFTSYWLHWVRQAPGKGLEWVGMIDPSNSDTRFNPNFKDRFTISADTSKNTAYLQMNSLRAEDTAVYYCATYRSYVTPLDYWGQGTLVTVSS
VL: DIQMTQSPSSLSASVGDRVTITCKSSQSLLYTSSQKNYLAWYQQKPGKAPKLLIYWASTRESGVPSRFSGSGSGTDFTLTISSLQPEDFATYYCQQYYAYPWTFGQGTKVEIKR
B12: eIg MKU011-A7xhuU3 EGFR arm (antibody, V domains shown)
VH: B6 chain 1
VL: QPVLTQSPSASGTPGQRVTISCSGVSSNIGRNYVYWYQQFPGTAPKLLIYATHQRPSGVPDRFSGSKSGTSASLAISGLRSEDEANYYCAAWDDGVTGWVFGGGTKLTVLG
B13: Fab-eIg YU250-H10xhuU3 EGFR arm (antibody)
chain 1: B6 chain 1
chain 2: B6 chain 2
B14: Fab-eIg MKU011-A7xhuU3 EGFR arm (antibody, V domains shown)
VH: B6 chain 1
VL: QPVLTQSPSASGTPGQRVTISCSGVSSNIGRNYVYWYQQFPGTAPKLLIYATHQRPSGVPDRFSGSKSGTSASLAISGLRSEDEANYYCAAWDDGVTGWVFGGGTKLTVL
B15: Panitumumab (antibody, V domains shown)
VH: QVQLQESGPGLVKPSETLSLTCTVSGGSVSSGDYYWTWIRQSPGKGLEWIGHIYYSGNTNYNPSLKSRLTISIDTSKTQFSLKLSSVTAADTAIYYCVRDRVTGAFDIWGQGTMVTVSS
VL: DIQMTQSPSSLSASVGDRVTITCQASQDISNYLNWYQQKPGKAPKLLIYDASNLETGVPSRFSGSGSGTDFTFTISSLQPEDIATYFCQHFDHLPLAFGGGTKVEIKR
B16: MKU011-A7 Fab-His (antibody, V domains shown)
VH: B6 chain 1
VL: B14 VL
B17: YU250-A02 Fab-His (antibody, V domains shown)
VH: B6 chain 1 with V5Q, Q6E
VL: B6 chain 2 with D82E, A91S, Y97T, S98G, N106K
B18: YU250-H10 Fab-His (antibody)
chain 1: B6 chain 1
chain 2: B6 chain 2
B19: scDb-scFv YU250-H10xhuU3 CD3 arm (antibody, V domains shown)
VH: QVQLVQSGAEVKKPGSSVKVSCKASGGTFSGYTMNWVRQAPGQGLEWMGLINPYKGVSTYNGKFKDRVTITADKSTSTAYMELSSLRSEDTAVYYCARSGYYGDSDWYFDVWGQGTLVTVSS
VL: DIQMTQSPSSLSASVGDRVTITCRASQDIRNYLNWYQQKPGKAPKLLIYYTSRLHSGVPSRFSGSGSGTDFTFTISSLQPEDIATYYCQQGNTLPWTFGQGTKLEIKR
B20: eIg YU250-H10xhuU3 CD3 arm (antibody, V domains shown)
VH: B19 VH
VL: B19 VL
B21: Fab-eIg YU250-H10xhuU3 CD3 arm (antibody, V domains shown)
VH: B19 VH
VL: B19 VL
B22: scDb YU250-H10xhuU3 CD3 arm (antibody, V domains shown)
VH: B19 VH
VL: B19 VL

What follows are binders tested against EGFR-moIgG2a-Fc (human) (assay: ELISA).

Row | EC50 | Binder
1 | 6.2 nM | B1
2 | 1.1 nM | B2
3 | 0.3 nM | B3
4 | 0.5 nM | B4
5 | 0.1 nM | B5
6 | 0.9 nM | B6
7 | 0.5 nM | B7

What follows are binders tested against T2, human EGFR on cells (human, UniProt P00533) (assay: FACS, LIM1215).

Row | EC50 | Binder
8 | 0.85 nM | B8
9 | 1.02 nM | B9
10 | 0.31 nM | B10

The binders below were run against MET-huFc (human) (assay: ELISA).
MET-huFc (human), sequence (chain, as listed by the source): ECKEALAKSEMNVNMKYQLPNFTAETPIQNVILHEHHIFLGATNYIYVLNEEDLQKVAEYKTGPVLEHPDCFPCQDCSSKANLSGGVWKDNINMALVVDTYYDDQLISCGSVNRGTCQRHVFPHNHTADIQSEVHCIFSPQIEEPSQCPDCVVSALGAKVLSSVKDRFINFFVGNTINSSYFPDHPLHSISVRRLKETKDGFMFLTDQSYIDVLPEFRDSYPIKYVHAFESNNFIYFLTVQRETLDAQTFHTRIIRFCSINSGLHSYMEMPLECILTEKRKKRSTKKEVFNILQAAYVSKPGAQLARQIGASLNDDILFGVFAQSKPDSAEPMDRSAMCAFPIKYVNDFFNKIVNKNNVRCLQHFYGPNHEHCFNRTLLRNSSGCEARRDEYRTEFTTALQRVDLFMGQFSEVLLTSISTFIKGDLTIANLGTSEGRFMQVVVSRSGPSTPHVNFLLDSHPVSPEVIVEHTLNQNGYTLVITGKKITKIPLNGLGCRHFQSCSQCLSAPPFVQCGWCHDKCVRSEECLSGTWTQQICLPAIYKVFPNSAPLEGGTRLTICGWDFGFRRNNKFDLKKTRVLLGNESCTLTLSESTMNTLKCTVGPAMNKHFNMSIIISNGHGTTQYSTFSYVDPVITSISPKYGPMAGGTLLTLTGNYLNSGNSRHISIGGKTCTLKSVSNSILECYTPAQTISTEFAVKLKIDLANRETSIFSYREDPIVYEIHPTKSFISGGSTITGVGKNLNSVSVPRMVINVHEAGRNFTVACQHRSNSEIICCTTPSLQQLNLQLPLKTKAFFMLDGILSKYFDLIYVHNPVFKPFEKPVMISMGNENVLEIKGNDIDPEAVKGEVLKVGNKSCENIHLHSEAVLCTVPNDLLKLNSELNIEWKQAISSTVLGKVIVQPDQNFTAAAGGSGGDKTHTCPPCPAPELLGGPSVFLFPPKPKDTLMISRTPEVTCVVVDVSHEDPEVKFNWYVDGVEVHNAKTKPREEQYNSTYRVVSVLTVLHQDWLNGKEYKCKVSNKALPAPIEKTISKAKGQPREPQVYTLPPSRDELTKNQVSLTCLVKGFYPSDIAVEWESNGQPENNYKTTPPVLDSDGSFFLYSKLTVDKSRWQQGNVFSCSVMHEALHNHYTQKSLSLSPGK

Row | EC50 | Binder
11 | 4.1 nM | B11

What follows are binders tested against T2, human EGFR on cells (assay: FACS, SW620).

Row | EC50 | Binder
12 | 0.21 nM | B8
13 | 0.74 nM | B12
14 | 0.03 nM | B13
15 | 0.03 nM | B14

Target: T1, mouse EGFR-His
Assay: ELISA, 10 nM

Row | binding result | Binder
16 | no binding | B15

The binders below were run against T2, human EGFR on cells (assay: FACS, FaDu).

Row | EC50 | Binder
17 | 3.28 nM | B12
18 | 0.32 nM | B13
19 | 0.4 nM | B14

The binders below were run against EGFR-His (human ECD) (human) (assay: BLI).

Row | Kd | Binder
20 | 55.8 nM | B16
21 | 12.9 nM | B17
22 | 4.17 nM | B18

What follows are binders tested against CD3 on Jurkat (human, UniProt P07766) (assay: FACS, Jurkat).
CD3 on Jurkat, sequence (P07766 23-207): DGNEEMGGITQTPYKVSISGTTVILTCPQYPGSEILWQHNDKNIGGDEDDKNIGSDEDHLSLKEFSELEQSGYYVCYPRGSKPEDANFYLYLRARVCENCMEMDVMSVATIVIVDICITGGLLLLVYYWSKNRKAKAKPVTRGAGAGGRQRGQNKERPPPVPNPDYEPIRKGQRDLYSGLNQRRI

Row | EC50 | Binder
23 | > 10 nM | B19
24 | > 10 nM | B20
25 | > 10 nM | B21
26 | 7.56 nM | B22

The binders below were run against T2, human EGFR on cells (assay: FACS, HCT-116).

Row | EC50 | Binder
27 | 0.46 nM | B8
28 | 4.28 nM | B12
29 | 0.13 nM | B13
30 | 0.16 nM | B14

Target: T2, human EGFR on cells
Assay: FACS, FaDu
Remark: another data set of the same source

Row | EC50 | Binder
31 | 2.17 nM | B8
32 | 1.68 nM | B9
33 | 0.76 nM | B13
34 | 0.74 nM | B10

Source: patent US20260297200 (published 2026)
